# Results reported in US20080044424.
# Target: T1, human PAR1 (AA #27-102)/thioredoxin fusion protein (UniProt P25116)
# T1 sequence: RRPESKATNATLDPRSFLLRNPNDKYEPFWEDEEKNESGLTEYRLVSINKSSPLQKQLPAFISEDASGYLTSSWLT
substance,measurement,value
thrombin,proteolytic cleavage,The PAR1/thioredoxin was cleaved to completion with thrombin
